Measured values taken from the supplement of paper PMC9170038.

System: K4 kissing-loop RNA reporter
Test: apparent KD of K4 kissing-loop reporter; higher = weaker reporter binding
Conditions: Eterna round: R107
Protocol: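 RNA-MaP round R107: designed RNA switches with theophylline, tryptophan, arginine or FMN aptamers are transcribed on-chip within common flanks. They are titrated with a labelled K4 kissing-loop RNA reporter in RNA-MaP buffer (100 mM Tris pH 7.5, 80 mM KCl, 4 mM MgCl2), without ligand or with the indicated ligand. Median apparent KD per design.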

[1] = input ligand: theophylline 20 uM
[2] = input ligand: tryptophan 2.4 mM
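Note: bound reporter read as fluorescence of individual clusters on recovered sequencing chips by microscopy, with normalized cluster intensities fitted with a binding model.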

| Sequence | apparent KD of K4 kissing-loop reporter (input ligand: FMN 200 uM) [nM] | apparent KD of K4 kissing-loop reporter (input ligand: arginine 13.2 mM) [nM] | apparent KD of K4 kissing-loop reporter (input ligand: none) [nM] | apparent KD of K4 kissing-loop reporter [1] [nM] | apparent KD of K4 kissing-loop reporter [2] [nM] |
| --- | --- | --- | --- | --- | --- |
| GGAUAGGACAGAGGAUAUGGACAGUCUACAAAGUAGGCUGAAUAAAUCCUUGAAUGGAGUGAUGUUCCAGAAGGCUGUCCUAUCG [FmnBX 22 #SwitchBubble #StaticStem #Palindromic] | 337 | 384 | 503 | 481 | 426 |
| GGAUAGGACAGAGGAUAUGGGCUAGGCAAGAAUAACUUGUCUAGCAAAUCCAUGAGGAGUGAUGUUCCAGAAGGUUGUCCUAUCG [FmnBX 1 U75] | 284 | 108 | 92.3 | 120 | 87.8 |
| GGAUAGGACAGAGGAUAUGGUAGUGAUGUUACCAAACUGGUUACUAAUGUCAGAAAACUGGCAAAUCCAGAAGGCUGUCCUAUCG [KL-XFMN-B13] | 278 | 76.3 | 85.2 | 69.5 | 82.3 |
| GGAUAGGAUAGAGGAUAUGGGUUAGGCAAGAAUAACUUGUCUUGUAAAUCCAUGAGGAGUGAUGUUCCAGAAGGCUGUCCUAUCG [MatMod 5 - Jieux - Exclusion - FMN B] | 301 | 113 | 112 | 114 | 93.6 |
| GGAUCCACCAGUGAUGUUGGAGAAAACUCAAAGGAUAUGACGAAAGUCAGAAGGUUGUAGACUGGACAAAGUCCGGUCGGAUCCA [FmnA 19 A30+U56] | 450 | 504 | 650 | 613 | 475 |
| GGAUCCACCAGUGAUGUUGGAGAAAACUCUAAGGAUAUGACGAAAGUCAGAAGGUAGUAGACUGGACAAAGUCCGGUCGGAUCCA [FmnA 23 U30+A56] | 583 | 376 | 1190 | 661 | 484 |
| GGAUCCACCAGUGAUGUUGGAGAAAACUUCAAGGAUAUGACGAAAGUCAGAAGGUGGUAGACUGGUCAAAGUCCGGUCGGAUCCA [FmnA10 U29+U66] | 658 | 120 | 459 | 147 | 194 |
| GGAUCCGCCAGUGAUGUUGGAGAAAACUCCAAGGAUAUGACGAAAGUCAGAAGGUGGUAGACUGGACAAAGUCCGGUCGGAUCCA [FmnA 26 #SwitchBubble #K4Early] | 761 | 331 | 932 | 157 | 442 |
| GGAUCGCAUGGCGAAAAGCCAUGCGAUCCACGAGGACCGGUACGGCCGCCACUCGCCGGAGUGAUGUUCCGCUACAGAUCUUAAA | 187 | 121 | 256 | 144 | 301 |
| GGAUUCACCAGUGAUGUUGGAGAAAACUCGAAGGAUAUGACGAAAGUCAGAAGGUCGUAGACUGGACAAAGUCCGGUCGGAUCCA [KL-SSFMN-A22] | 419 | 250 | 299 | 359 | 279 |
| GGAUUGCCAGUGAUGUUGGCAUAAACUGAAGGAGCGCGUGAAAACGCAGGUAGGUCGCAGAACCUUGCCAACUAUAUUAUUUACC [Ex Arginine A K4 22] | 111 | 137 | 123 | 146 | 102 |
| GGCACUUUUGCUUGGAACCGUCAAGCUCUUUAGGAUAUCUGGAAACAGAGAAGGAAAGACCUACAGAGUGAUGUUCUGCGUGCCU | 332 | 133 | 273 | 183 | 144 |
| GGCAGAGUGAUGUUCGCCCUUUACCUUGAUACCAGUUCAUCUCAAAACCCUUGGCAGCAAGUGUGUAAGAGCGGUAUUGGUCAAU [theeternabot_exclusion_KL_Theo_A_1] | 356 | 306 | 388 | 359 | 339 |
| GGCAGUGAUGUUGCCAGUGGCAGAUUGGAAGGAGCGUGGUGAGACACAGGUAGGUCGCUAAUUGAAGUUGCUGUCACUAGAAUGC [whbob_Ex_Arginine_A_2t132] | 214 | 280 | 293 | 335 | 231 |
| GGCAUGCGUAGAGUGAUGUUCUAAGAUGAUACCAGUGCGGAAACGCACCCUUGGCAGCAUCUGACUGGCAUGCCGGCGAAAGCCU | 871 | 811 | 1240 | 770 | 982 |
| GGCCGCAAGGCGGGCCGGCCCACUCCGGAAGGAGCGCCCGCAAGGGCAGGUAGGUCGCCGGAGUGAUGUUCCGGUGGCCGGCCCG [#2 Exclusion - Arginine A Attempt #2 (Inspired by Omei)] | 140 | 136 | 133 | 93.8 | 130 |

| Sequence | apparent KD of K4 kissing-loop reporter (input ligand: FMN 200 uM) [nM] | apparent KD of K4 kissing-loop reporter (input ligand: arginine 13.2 mM) [nM] | apparent KD of K4 kissing-loop reporter (input ligand: none) [nM] | apparent KD of K4 kissing-loop reporter [1] [nM] | apparent KD of K4 kissing-loop reporter [2] [nM] |
| --- | --- | --- | --- | --- | --- |
| GGCCGGAAGGCGAGCGCUCCCACUCCGGAAGGAGCGCCCGGAAGGGCAGGUAGGUCGCCGGAGUGAUGUUCCGGUGGAGGGCUCG [#2 Exclusion - Arginine A Attempt #19 (Inspired by Omei)] | 141 | 120 | 80.4 | 271 | 70.2 |
| GGCCGGUUGAAAGGCCGGCCAGAAACCGAAGGAGCGCGAAGAAACGCAGGUAGGUCGCGGAAAACAUGACCAGUGAUGUUGGUCG | 152 | 173 | 154 | 152 | 144 |
| GGCGAUGAGUGAUGUUCAAAGAAUAAUGAUACCAGCUGAUGUCGAAGCCCUUGGCAGCAUAGAUACACCAAGUGAUGGUAAUGCC [Default title] | 193 | 209 | 237 | 235 | 143 |
| GGGAACUCUUACGAUACCAGCCGGAGUGAUGUUCCGUGCUUGGACGUAGUAACCCGCACCGGCCCUUGGCAGCGUGGAUCUUGUG [Esgeonin] | 80.6 | 65.5 | 78.1 | 73.2 | 83.5 |
| GGGAAGAAGGCGGCCGCCACUGCAGAAGAGACAGAGAGGGUAGAAGAGGAGUGAUGUUCCAAGAACAGGACCGGGCCAAGAAGGG [whbob_SS_Tryp_B_t30] | 226 | 172 | 226 | 237 | 137 |
| GGGAGCAAAGCUCCCGGAUGCUAUUACCAGGAGGAUAUCUGGAAACAGAGAAGGCCUAAGCCAGUGAUGUUGGUUUCGAGCAUCC | 184 | 257 | 278 | 305 | 274 |
| GGGAGGAGUGGUGUUGAUUAAGAAGCGGAAGGAGCGCCGAAGAAGGCAGGUAGGUCGCCGAAAUAUAGUGAUGUUAUAUAAAGGG [ExArg.C] | 340 | 198 | 281 | 262 | 208 |
| GGGAGUAGUGCGGCCGCCACUGAGAAAGAAGAAGAAUAUAGUGAUGUUAUAUAGGAAUAAAAGAAUAGGACCGGGCAUUAGAUUU [SSTRyptB.S] | 165 | 245 | 269 | 215 | 159 |
| GGGAGUAGUGCGGCCGCCACUGUGAAAGAAGAAGAAUAUAGUGAUGUUAUAUAGGAAUUAAAGAAUAGGACCGGGCAUUAGAUUU [SSTRyptB.Q] | 248 | 198 | 260 | 311 | 184 |
| GGGCAUCUGGCUGAUACCAGUGAUAAAGGGUAAGAGACAGGGAGUGAUGUUCCCUUUAGCCACCCUUGGCAGCAGUUUAAGUUUG [Exclusion Theophylline B GF 17] | 83.5 | 83.3 | 94.7 | 85.4 | 76.4 |
| GGGCAUGUUAAAGGAUAUAGCAGGUGAUACAAGAAAGUGAGUGAUGUUUAUGUAGAUGAUGAUAUGUUAGAAGGUUAACAAAACC [abcdefghijklm] | 597 | 475 | 620 | 529 | 374 |
| GGGCCGCGCGCGGCCGCCACUCAGUGAUGUUGGGUGAGCUUUGCUGUGCGUGCUGUUUCGUGACGGAGGACCGGGCGCGCGGCCU [BDazzled 2] | 129 | 93.6 | 121 | 113 | 215 |
| GGGCGCGGCGCGGCCGCCACUGGGCCUGGGCGCUCGCUGAGUGAUGUUCGUCGGCGGCUGGGUCGUAGGACCGGGUGCCGGCUGG [BDazzled - #4 SS Tryptophan B] | 735 | 533 | 1320 | 627 | 269 |
| GGGCGUGGCGCGGCCGCCACUGGGCCUGGGCGCUCGCUGAGUGAUGUUCGUCGGCGGUUGGGUCGUAGGACCGGGUGCUGGUUGG [BDazzled - #8 SS Tryptophan B] | 402 | 199 | 516 | 281 | 253 |
| GGGCGUUACGGAGUGAUGUUCCGUAGCGAUACCAGCCAUUGCGAUGGCCCUUGGCAGCGCUAUAAGCAUAGAAUUGUAGCGCUUA [Theo A Ex t7b] | 109 | 94.1 | 108 | 102 | 105 |
| GGGCUAUAGUGAUGUUAUUGUCUAAACGAUACCAGUUCACCCGUGAACCCUUGGCAGCGUGGUGUAACCUAUCCUCGUUGCACUG [theeternabot_sameState_KL_Theo_A_28] | 640 | 595 | 744 | 523 | 554 |
